Source: the PETadex activity labels (doi:10.1016/j.eti.2025.104587)

Experiments:
PET = assay: Proxy for plastic degradation [Weight/mass loss]; conditions: pH 7.5; 0 h
pNPB = assay: Proxy for plastic degradation [p-nitrophenol (pNP) release] (% relative activity)

B1: unnamed (protein)
chain: MKSVLARARLVAAATAMLAFAAWALVSAAPAVEAQSNPYQRGPNPTRSALTADGPFSVSTYSVSGLSVSGFGGGVIYYPTGTTLTFGGIAMSPGYTASSSSLAWLGRRLASHGFVVLVIDTITRLDFPDSRASQLSAALNYLRTSSPSTVRARLDGTRLAVAGHSMGGGGTLRVSEQLPSLKAGVPLTPWHTDKTFNTSVPQLIVGAENDSVAPVSQHAIPFYQNLPSTTPKVYVELNNASHFAPNTSNATISVYTISWMKLWVDNDTRYRPFLCNVSDASLSDFRSNNRHCQ
PET
  Proxy for plastic degradation: 0%
pNPB; pH 4
  Proxy for plastic degradation: 0
pNPB; pH 5
  Proxy for plastic degradation: 34.5
pNPB; pH 6.5
  Proxy for plastic degradation: 75
pNPB; pH 7
  Proxy for plastic degradation: 86.5
pNPB; pH 7.5
  Proxy for plastic degradation: 99.5
pNPB; pH 7.5, 30 °C
  Proxy for plastic degradation: 39.5
pNPB; pH 7.5, 40 °C
  Proxy for plastic degradation: 41
pNPB; pH 7.5, 50 °C
  Proxy for plastic degradation: 48
pNPB; pH 7.5, 60 °C
  Proxy for plastic degradation: 72
pNPB; pH 7.5, 70 °C
  Proxy for plastic degradation: 99
pNPB; pH 7.5, 80 °C
  Proxy for plastic degradation: 69.5
pNPB; pH 9
  Proxy for plastic degradation: 60.5
pNPB; pH 10
  Proxy for plastic degradation: 45.5
